Reference: patent US20110300156A1 (Genmab, published 2011)

T1: murine tissue factor (TF) on transfected HEK293F cells (murine, UniProt P20352 29-294)
T1 construct: whole, on cells; also called murine TF; TFmm
T1 sequence (looked up): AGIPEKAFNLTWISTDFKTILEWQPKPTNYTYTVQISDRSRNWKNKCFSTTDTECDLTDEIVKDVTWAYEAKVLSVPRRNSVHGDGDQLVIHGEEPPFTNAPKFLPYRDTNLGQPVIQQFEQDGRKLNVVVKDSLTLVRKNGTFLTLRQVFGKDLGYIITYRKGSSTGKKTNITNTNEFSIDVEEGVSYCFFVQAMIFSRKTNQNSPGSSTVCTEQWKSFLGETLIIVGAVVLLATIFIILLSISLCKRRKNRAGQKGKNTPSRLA


Columns and labels:
[1] = target: T2, TFECDHis (extracellular domain of tissue factor, amino acid 1-251, with C-terminal His tag) (human, UniProt P13726 33-251); experiment: competition ELISA, inhibition of FVIIa (100 nM) binding to coated TFECDHis
T2 construct: range 1-251; The stated range 1-251 starts at residue 1 of NP-001984; also called extracellular domain of TF
Method: ELISA plates were coated overnight with TFECDHis (0.5 μg/mL, 100 μL per well). Plates were emptied, blocked with PBS containing 2% (v/v) chicken serum (1 hour, RT), and emptied again. […] Plates were washed and incubated with swine-anti-rabbit IgG-HRP antibody (1:2,500; DAKO). After washing, the immune complexes were visualized using ABTS as a substrate.

[2] = target: T3, human tissue factor (TF), membrane-bound on cells (human, UniProt P13726 33-295); experiment: FACS, A431 cells, 30 µg/mL
T3 construct: whole, on cells; also called cellular TF
Summary of the method: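 Flow cytometry readout of PE-labelled anti-human IgGFc bound to cells after a 30 min on-ice incubation with HuMab dilution series. Binding curves analysed by non-linear regression (sigmoidal dose-response, variable slope). HuMab-KLH served as negative control.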

[3] = target: T3, human tissue factor (TF), …; experiment: FACS on SK-OV-3 cells (~60.000 TF molecules/cell) [panel SK-OV-3 cells]
Method: (§1) Cells were resuspended in PBS (2×10⁶ cells/ml), put in 96-well V-bottom plates (50 μl/well). 50 μl of serially diluted HuMab in FACS buffer (PBS supplemented with 0.1% BSA and 0.02% Na-azide) was added to the cells and incubated for 30 minutes on ice. After washing three times with FACS buffer, 50 μl of phycoerythrin (PE)-conjugated goat anti-human IgGFc (Jackson ImmunoResearch), diluted 1:100 in FACS buffer, was added. After 30 minutes on ice (in the dark), cells were washed three times, and specific binding of the HuMabs was detected by flow cytometry on a FACSCalibur (BD Biosciences). HuMab-KLH was used as a negative control. Mouse anti-TF followed by PE-conjugated anti-mouse IgGFc was used as positive control. Binding curves were analyzed using non-linear regression (sigmoidal dose-response with variable slope) using GraphPad Prism V4.03 software (GraphPad Software, San Diego, Calif., USA).
Binding of anti-TF HuMabs to membrane-bound TF on cell lines expressing different levels of TF was determined by FACS analysis, essentially as described supra. […] Fluorescence was measured on a FACSCantoII. Binding curves were analyzed essentially as described supra, using GraphPad Prism 5 software. The amount of TF molecules on cell lines was determined by Qifi kit (Dako, Glostrup, Denmark), according to the manufacturer's instructions.

[4] = target: T1, murine tissue factor (TF) on …; experiment: FACS on transfected HEK293F cells, 30 µg/mL antibody [panel M]
[5] = target: T3, human tissue factor (TF), …; experiment: FACS on AsPC-1 cells (~175.000 TF molecules/cell) [panel AsPC-1 cells]
Method: as §1
Binding of anti-TF HuMabs to membrane-bound TF on cell lines expressing different levels of TF was determined by FACS analysis, essentially as described supra. Mouse anti-TF antibody followed by PE-conjugated anti-mouse IgGFc was used as a positive control. Fluorescence was measured on a FACSCantoII. Binding curves were analyzed essentially as described supra, using GraphPad Prism 5 software. The amount of TF molecules on cell lines was determined by Qifi kit (Dako, Glostrup, Denmark), according to the manufacturer's instructions.

[6] = target: TF (Innovin) (UniProt P13726 33-295, limits assumed); experiment: cell-based or functional assay
[7] = target: T2, TFECDHis (extracellular domain of …); experiment: SPR avidity format: TFECDHis immobilized, bivalent HuMab as analyte (printed as avidity nM)
Method: Antibody binding to TF was analyzed by surface plasmon resonance in a BIAcore 3000 (GE Healthcare). TFECDHis was used for the analysis. HuMab antibodies (500 resonance units) were immobilized on the CM-5 sensor chip according to the procedure recommended by the manufacturer. Briefly, after surface activation by EDC and NHS HuMab antibody was injected over the activated CM-5 surface in 10 mM sodium-acetate, pH ranging from 4.0 to 5.5 at 5 μl/min. followed by 1 M Ethanolamine for deactivation. Concentration series of TFECDHis in HBS-EP buffer were injected over the immobilized antibodies at a flow rate of 30 μl/min for 180 sec. Regeneration of the HuMab surface was performed by injection of 10 mM Glycine-HCl pH 2.0 or 10 mM sodium acetate pH 3.0. Kinetic analysis was performed using double reference subtraction and model 1:1 (langmuir) binding analysis.
TF (TFECDHis) binding to TF-specific HuMabs was determined essentially as described above, with TFECDHis being immobilized on the CM-5 sensor chip (300 resonance units), and concentration series of Humab antibodies used for kinetic analysis. Kinetic analysis was performed using double reference subtraction and model 1:1 (langmuir) binding analysis.

[8] = target: T1, murine tissue factor (TF) on …; experiment: FACS on transfected HEK293F cells, 30 µg/mL antibody [Figure 18; no figure label on the sheet]
Method: as §1
To determine domains important for binding of anti-TF HuMabs to human TF, DNA shuffling was performed between human and murine TF. Shuffle constructs were prepared from DNA encoding human TF, by replacing human domains with murine domains and from DNA encoding murine TF by replacing murine domains with human domains.

| max inhibition [1] [%] | Max MFI [2] | EC50 (read off the curve) [3] [µg/mL] | binding result [4] | EC50 (read off the curve) [5] [µg/mL] | % max inhibition of FXa generation [6] [%] | IC50, inhibition of FXa generation [6] [nM] | Kd [7] [nM] | IC50 [1] [nM] | binding result [8] | Binder |
| --- | --- | --- | --- | --- | --- | --- | --- | --- | --- | --- |
| 90 | 3120 | ~0.04 | no binding (tested: 30 µg/mL) | ~0.1 | 18 | 0.09 | 0.01 | – | – | anti-TF HuMab 109 (antibody, V domains shown, Human monoclonal antibody from HuMab mice) VH: QVQLVESGGGVVQPGRSLRLSCPASGFTFSIYAMHWVRQAPGKGLEWVAVVSNDGYNKYYADSVKGRFTISRDNSKDTLYLQMNSLRAEDTAVYYCARDGQLGRGYFDYWGQGTLVTVSS VL: EIVLTQSPATLSLSPGERAILSCRASQSVSSYLAWYQQKPGQAPRLLIYDASNRATGIPARFSGSGSGTDFTLTISSLEPEDFAVYYCQQRSNWPLTFGGGTKVEIK |
| 27 | 3620 | – | – | – | 31 | 0.05 | – | 19.3 | no binding (tested: 30 µg/mL) | anti-TF HuMab 013 (antibody, V domains shown, Human monoclonal antibody from HuMab mice; also called HuMab-TF-13) VH: EVQLVQSGAEVKKPGESLKISCKGSGYSFTSYWIGWVRQMPGKGLEWMGIIYPGDSDTRYSPSFQGQVTISADKSISTAYLQWSSLKASDTAMYYCARIHRGAGYSSSWPGAFDIWGQGTMVTVSS VL: DIQMTQSPSSLSASVGDRVTITCRASQGISRWLAWYQQKPEKAPKSLIYAASSLQSGVPSRFSGSGSGTDFTLTISSLQPEDFATYYCQQYDSDPITFGQGTRLEIK |
